This experiment has as its target T1, GST-BAK1KD (cytoplasmic kinase domain of BAK1, AAs 250-615, fused to GST) (Arabidopsis thaliana, UniProt Q94F62 250-615).
T1 construct: BRASSINOSTEROID …1-ASSOCIATED KINASE1 (BAK1), Arabidopsis thaliana, cytoplasmic kinase domain, amino acids 250-615; Cloned into the EcoRI/SalI site of pGEX-4T-1; source: E. coli BL21(DE3), purified; not shown: GST, N-terminal, kept
T1 sequence (looked up): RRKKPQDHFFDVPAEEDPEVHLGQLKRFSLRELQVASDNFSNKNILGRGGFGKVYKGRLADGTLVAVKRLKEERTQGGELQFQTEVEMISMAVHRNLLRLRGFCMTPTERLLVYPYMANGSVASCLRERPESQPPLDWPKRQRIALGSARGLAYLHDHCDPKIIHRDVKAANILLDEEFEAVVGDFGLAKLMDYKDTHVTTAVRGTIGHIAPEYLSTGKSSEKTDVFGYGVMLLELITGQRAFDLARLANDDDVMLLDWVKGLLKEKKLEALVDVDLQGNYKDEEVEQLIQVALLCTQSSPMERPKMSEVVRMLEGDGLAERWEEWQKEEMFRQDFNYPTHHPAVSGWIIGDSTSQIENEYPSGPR
As to the kind of experiment: pull-down; 1 μg MBP or MBP-LecRK-VI.2KD incubated with 1 μg GST-BAK1KD in 20 mM Tris-HCl, 200 mM NaCl, 1 mM EDTA, pH 7.4, 4 °C; pulled down with amylose resin beads; washes with 0.6% Triton X-100; immunoblot with anti-MBP and anti-GST. Particulars: both partners purified. For orientation: A western blot detects proteins with antibodies after separation by electrophoresis.

B1: MBP-LecRK-VI.2KD (cytoplasmic kinase domain of LecRK-VI.2, AAs 331-682, fused to maltose-binding protein) (domain or fragment, Arabidopsis thaliana, UniProt Q9M021 331-682, looked up)
chain: FVMYKKRLGQEETLEDWEIDHPRRLRYRDLYVATDGFKKTGIIGTGGFGTVFKGKLPNSDPIAVKKIIPSSRQGVREFVAEIESLGKLRHKNLVNLQGWCKHKNDLLLIYDYIPNGSLDSLLYTVPRRSGAVLSWNARFQIAKGIASGLLYLHEEWEKIVIHRDVKPSNVLIDSKMNPRLGDFGLARLYERGTLSETTALVGTIGYMAPELSRNGNPSSASDVFAFGVLLLEIVCGRKPTDSGTFFLVDWVMELHANGEILSAIDPRLGSGYDGGEARLALAVGLLCCHQKPASRPSMRIVLRYLNGEENVPEIDDEWGYSKSSRSEFGSKLVGYVSSTSITRVSSTSRISQ
notes: lectin receptor kinase LecRK-VI.2, Arabidopsis thaliana, gene At5g01540, cytoplasmic kinase domain, amino acids 331-682; Cloned into the BamHI/SalI site of pMAL-p2X; source: E. coli BL21(DE3), purified; not shown: MBP, N-terminal, kept
In the case of B1, the binding result is “binds”.

These data come from paper PMC6805918, “Extracellular pyridine nucleotides trigger plant systemic immunity through a lectin receptor kinase/BAK1 complex” (Nature Communications, 2019).
